{"source": "patent US20210071139A1", "experiment_in_all_cases": "anti-TOX IP from EL4 nuclear extract, LC-MS/MS, MiST", "key": {"[1]": {"molecular_target": "Aldh18a1 (UniProt Q9Z110)", "sequence (Q9Z110 whole entry)": "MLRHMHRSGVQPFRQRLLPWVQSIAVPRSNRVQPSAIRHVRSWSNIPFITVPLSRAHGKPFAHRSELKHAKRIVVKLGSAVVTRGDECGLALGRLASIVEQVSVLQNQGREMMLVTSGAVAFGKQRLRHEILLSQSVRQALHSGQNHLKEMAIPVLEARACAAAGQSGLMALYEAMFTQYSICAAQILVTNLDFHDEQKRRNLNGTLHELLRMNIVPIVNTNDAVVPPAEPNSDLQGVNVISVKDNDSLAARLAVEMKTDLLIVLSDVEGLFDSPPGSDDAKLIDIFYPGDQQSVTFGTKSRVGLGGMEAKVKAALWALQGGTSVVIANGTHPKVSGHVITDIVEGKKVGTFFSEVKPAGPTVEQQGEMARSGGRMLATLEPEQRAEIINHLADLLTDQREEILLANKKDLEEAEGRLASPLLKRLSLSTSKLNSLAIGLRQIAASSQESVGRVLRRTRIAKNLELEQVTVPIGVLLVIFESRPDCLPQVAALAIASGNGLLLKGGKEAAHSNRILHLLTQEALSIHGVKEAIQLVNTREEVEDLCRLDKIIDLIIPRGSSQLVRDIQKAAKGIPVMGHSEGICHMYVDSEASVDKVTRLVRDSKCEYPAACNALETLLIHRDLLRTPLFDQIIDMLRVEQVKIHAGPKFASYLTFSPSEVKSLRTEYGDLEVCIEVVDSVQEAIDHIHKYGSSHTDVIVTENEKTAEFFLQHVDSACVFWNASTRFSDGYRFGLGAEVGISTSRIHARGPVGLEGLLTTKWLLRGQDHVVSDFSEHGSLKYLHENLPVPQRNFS"}, "[2]": {"molecular_target": "Cdk9 (UniProt Q99J95)"}, "[3]": {"molecular_target": "Ddx55 (UniProt Q6ZPL9)"}, "[4]": {"molecular_target": "Dhx30 (UniProt Q99PU8)", "sequence (Q99PU8 whole entry)": "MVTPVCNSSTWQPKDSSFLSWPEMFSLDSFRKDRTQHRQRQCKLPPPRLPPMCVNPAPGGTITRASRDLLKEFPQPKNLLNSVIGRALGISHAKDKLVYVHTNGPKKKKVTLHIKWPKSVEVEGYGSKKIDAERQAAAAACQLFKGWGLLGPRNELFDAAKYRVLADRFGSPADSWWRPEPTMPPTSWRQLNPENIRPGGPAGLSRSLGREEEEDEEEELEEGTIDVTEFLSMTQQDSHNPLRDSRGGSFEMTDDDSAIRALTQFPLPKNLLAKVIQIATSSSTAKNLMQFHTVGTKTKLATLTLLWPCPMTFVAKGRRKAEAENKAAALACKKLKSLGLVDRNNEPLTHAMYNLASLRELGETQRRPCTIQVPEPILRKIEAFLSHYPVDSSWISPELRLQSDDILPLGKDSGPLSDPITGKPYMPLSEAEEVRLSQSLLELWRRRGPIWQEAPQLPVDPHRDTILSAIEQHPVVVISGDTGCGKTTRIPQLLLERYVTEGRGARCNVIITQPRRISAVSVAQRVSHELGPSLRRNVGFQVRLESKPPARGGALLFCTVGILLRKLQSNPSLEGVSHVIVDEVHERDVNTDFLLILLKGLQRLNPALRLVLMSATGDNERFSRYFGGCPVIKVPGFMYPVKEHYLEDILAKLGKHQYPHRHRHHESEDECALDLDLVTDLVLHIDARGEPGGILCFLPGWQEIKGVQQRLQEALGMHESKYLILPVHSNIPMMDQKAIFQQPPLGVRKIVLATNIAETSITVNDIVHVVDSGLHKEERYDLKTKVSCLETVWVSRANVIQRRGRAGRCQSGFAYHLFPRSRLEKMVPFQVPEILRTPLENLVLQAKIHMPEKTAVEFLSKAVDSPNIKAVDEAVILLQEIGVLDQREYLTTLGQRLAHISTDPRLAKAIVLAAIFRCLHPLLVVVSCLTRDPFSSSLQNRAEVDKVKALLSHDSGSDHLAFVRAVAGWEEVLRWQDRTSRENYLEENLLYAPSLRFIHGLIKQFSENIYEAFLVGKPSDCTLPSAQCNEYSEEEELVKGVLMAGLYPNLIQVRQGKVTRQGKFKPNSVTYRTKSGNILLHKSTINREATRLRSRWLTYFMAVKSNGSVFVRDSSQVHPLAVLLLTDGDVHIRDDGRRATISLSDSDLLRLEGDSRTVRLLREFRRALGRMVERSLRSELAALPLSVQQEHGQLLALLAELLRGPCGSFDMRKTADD"}, "[5]": {"molecular_target": "Eif4g2 (UniProt Q62448)", "sequence (Q62448 whole entry)": "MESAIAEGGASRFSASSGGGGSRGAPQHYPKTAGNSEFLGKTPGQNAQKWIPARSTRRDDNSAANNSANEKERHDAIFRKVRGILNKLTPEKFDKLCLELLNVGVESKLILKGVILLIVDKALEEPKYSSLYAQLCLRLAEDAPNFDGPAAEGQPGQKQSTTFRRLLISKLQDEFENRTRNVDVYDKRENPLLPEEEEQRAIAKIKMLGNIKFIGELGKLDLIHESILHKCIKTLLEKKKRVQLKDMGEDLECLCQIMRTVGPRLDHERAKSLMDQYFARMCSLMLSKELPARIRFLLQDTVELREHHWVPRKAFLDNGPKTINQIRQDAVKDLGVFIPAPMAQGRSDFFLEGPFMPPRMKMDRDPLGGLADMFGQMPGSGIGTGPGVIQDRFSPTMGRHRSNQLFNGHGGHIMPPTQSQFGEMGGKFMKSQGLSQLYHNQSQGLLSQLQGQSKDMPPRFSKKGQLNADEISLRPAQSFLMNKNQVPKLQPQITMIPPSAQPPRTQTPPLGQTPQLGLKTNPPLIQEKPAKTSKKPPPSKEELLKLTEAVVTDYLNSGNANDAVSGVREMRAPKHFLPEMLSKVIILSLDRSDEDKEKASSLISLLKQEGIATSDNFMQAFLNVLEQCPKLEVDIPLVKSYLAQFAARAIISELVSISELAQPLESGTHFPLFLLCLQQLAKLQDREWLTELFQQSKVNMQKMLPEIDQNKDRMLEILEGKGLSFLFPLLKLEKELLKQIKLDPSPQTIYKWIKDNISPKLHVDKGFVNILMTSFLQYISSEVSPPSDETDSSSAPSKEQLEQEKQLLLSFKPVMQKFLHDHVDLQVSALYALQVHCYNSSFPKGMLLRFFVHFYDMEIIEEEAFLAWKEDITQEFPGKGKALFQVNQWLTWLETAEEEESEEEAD"}, "[6]": {"molecular_target": "Eif4h (UniProt Q9WUK2)", "sequence (Q9WUK2 2-248 limits assumed)": "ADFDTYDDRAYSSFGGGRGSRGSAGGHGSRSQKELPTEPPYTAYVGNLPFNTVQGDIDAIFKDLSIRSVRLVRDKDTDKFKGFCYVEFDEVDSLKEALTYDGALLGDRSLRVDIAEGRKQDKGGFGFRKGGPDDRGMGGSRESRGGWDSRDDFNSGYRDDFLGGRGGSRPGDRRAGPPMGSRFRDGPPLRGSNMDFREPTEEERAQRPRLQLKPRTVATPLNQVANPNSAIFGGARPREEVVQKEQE"}, "[7]": {"molecular_target": "Eif5b (UniProt Q05D44)"}, "[8]": {"molecular_target": "Gm10094; Sap18"}, "[9]": {"molecular_target": "Hs2st1 (UniProt Q8R3H7)", "sequence (Q8R3H7 whole entry)": "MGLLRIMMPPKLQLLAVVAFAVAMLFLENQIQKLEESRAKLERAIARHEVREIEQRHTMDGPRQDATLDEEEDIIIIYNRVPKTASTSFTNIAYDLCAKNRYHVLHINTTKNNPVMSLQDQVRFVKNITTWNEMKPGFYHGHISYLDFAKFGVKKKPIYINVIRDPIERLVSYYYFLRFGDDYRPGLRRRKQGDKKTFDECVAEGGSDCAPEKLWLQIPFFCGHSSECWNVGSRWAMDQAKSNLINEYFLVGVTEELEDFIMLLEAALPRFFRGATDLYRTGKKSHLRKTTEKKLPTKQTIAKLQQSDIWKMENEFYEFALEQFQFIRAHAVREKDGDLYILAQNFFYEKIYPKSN"}, "[10]": {"molecular_target": "Ing2 (UniProt Q9ESK4)", "sequence (Q9ESK4 whole entry)": "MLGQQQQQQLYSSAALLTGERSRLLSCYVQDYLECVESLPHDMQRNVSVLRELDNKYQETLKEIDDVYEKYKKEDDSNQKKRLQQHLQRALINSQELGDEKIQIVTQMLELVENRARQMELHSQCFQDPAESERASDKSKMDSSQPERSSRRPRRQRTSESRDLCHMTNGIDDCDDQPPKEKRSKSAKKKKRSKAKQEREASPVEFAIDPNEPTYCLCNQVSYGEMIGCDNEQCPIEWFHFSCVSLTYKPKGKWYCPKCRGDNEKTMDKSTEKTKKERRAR"}, "[11]": {"molecular_target": "Mars (UniProt Q68FL6)", "sequence (Q68FL6 whole entry)": "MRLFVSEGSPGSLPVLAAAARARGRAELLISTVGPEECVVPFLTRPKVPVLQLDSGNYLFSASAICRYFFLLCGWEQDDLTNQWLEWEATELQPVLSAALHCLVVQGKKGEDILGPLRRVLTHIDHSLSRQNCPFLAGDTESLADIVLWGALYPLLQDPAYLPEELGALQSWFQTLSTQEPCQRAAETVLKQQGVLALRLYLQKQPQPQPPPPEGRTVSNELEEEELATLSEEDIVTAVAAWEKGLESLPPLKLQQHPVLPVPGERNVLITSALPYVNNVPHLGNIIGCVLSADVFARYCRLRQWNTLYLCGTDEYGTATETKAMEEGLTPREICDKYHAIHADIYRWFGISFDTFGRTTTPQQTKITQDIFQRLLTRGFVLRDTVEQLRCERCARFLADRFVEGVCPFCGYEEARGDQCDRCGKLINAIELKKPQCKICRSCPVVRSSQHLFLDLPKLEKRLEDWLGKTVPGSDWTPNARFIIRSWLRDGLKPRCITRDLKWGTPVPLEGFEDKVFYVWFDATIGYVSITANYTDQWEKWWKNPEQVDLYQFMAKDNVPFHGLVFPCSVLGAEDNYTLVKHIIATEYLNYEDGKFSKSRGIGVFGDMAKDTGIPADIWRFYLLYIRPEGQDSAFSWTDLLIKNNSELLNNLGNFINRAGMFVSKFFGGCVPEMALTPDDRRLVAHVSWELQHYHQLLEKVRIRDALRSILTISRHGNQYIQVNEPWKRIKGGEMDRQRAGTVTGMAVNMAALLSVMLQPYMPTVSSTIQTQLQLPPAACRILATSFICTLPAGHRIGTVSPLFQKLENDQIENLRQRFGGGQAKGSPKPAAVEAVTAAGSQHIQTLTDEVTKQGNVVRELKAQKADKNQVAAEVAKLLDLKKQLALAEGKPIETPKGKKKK"}, "[12]": {"molecular_target": "Rrp1b (UniProt Q91YK2)"}, "[13]": {"molecular_target": "Safb; Safb2; mKIAA0138"}, "[14]": {"molecular_target": "Sltm (UniProt Q8CH25)"}, "[15]": {"molecular_target": "Snrpb2 (UniProt Q9CQI7)", "sequence (Q9CQI7 whole entry)": "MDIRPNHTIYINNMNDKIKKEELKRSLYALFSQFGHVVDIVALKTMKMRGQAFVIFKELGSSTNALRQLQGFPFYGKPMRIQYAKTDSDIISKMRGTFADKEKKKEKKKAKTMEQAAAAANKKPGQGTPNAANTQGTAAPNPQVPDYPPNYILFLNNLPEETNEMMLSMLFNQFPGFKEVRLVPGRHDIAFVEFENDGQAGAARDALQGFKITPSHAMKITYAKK"}, "[16]": {"molecular_target": "Zfr (UniProt O88532)"}}}
{"substance": "TOX (from UniProt Q66JW3 1-526)", "values": [{"measurement": "Abundance", "setting": "[1]", "result": "9.69e-06"}, {"measurement": "MiST Score", "setting": "[1]", "result": 0.887}, {"measurement": "Reproducibility", "setting": "[1]", "result": 0.702}, {"measurement": "Specificity", "setting": "[1]", "result": 0.979}, {"measurement": "Abundance", "setting": "[2]", "result": "1.6e-05"}, {"measurement": "MiST Score", "setting": "[2]", "result": 0.865}, {"measurement": "Reproducibility", "setting": "[2]", "result": 0.581}, {"measurement": "Specificity", "setting": "[2]", "result": 1}, {"measurement": "Abundance", "setting": "[3]", "result": "2.21e-06"}, {"measurement": "MiST Score", "setting": "[3]", "result": 0.863}, {"measurement": "Reproducibility", "setting": "[3]", "result": 0.574}, {"measurement": "Specificity", "setting": "[3]", "result": 1}, {"measurement": "Abundance", "setting": "[4]", "result": "2.07e-06"}, {"measurement": "MiST Score", "setting": "[4]", "result": 0.89}, {"measurement": "Reproducibility", "setting": "[4]", "result": 0.892}, {"measurement": "Specificity", "setting": "[4]", "result": 0.897}, {"measurement": "Abundance", "setting": "[5]", "result": "4.84e-06"}, {"measurement": "MiST Score", "setting": "[5]", "result": 0.866}, {"measurement": "Reproducibility", "setting": "[5]", "result": 0.887}, {"measurement": "Specificity", "setting": "[5]", "result": 0.864}, {"measurement": "Abundance", "setting": "[6]", "result": "1.07e-05"}, {"measurement": "MiST Score", "setting": "[6]", "result": 0.869}, {"measurement": "Reproducibility", "setting": "[6]", "result": 0.595}, {"measurement": "Specificity", "setting": "[6]", "result": 1}, {"measurement": "Abundance", "setting": "[7]", "result": "7.46e-06"}, {"measurement": "MiST Score", "setting": "[7]", "result": 0.878}, {"measurement": "Reproducibility", "setting": "[7]", "result": 0.771}, {"measurement": "Specificity", "setting": "[7]", "result": 0.933}, {"measurement": "Abundance", "setting": "[8]", "result": "2.26e-05"}, {"measurement": "MiST Score", "setting": "[8]", "result": 0.878}, {"measurement": "Reproducibility", "setting": "[8]", "result": 0.625}, {"measurement": "Specificity", "setting": "[8]", "result": 1}, {"measurement": "Abundance", "setting": "[9]", "result": "6.47e-06"}, {"measurement": "MiST Score", "setting": "[9]", "result": 0.879}, {"measurement": "Reproducibility", "setting": "[9]", "result": 0.628}, {"measurement": "Specificity", "setting": "[9]", "result": 1}, {"measurement": "Abundance", "setting": "[10]", "result": "2.44e-05"}, {"measurement": "MiST Score", "setting": "[10]", "result": 0.878}, {"measurement": "Reproducibility", "setting": "[10]", "result": 0.625}, {"measurement": "Specificity", "setting": "[10]", "result": 1}, {"measurement": "Abundance", "setting": "[11]", "result": "3.23e-07"}, {"measurement": "MiST Score", "setting": "[11]", "result": 0.877}, {"measurement": "Reproducibility", "setting": "[11]", "result": 0.619}, {"measurement": "Specificity", "setting": "[11]", "result": 1}, {"measurement": "Abundance", "setting": "[12]", "result": "4.86e-06"}, {"measurement": "MiST Score", "setting": "[12]", "result": 0.875}, {"measurement": "Reproducibility", "setting": "[12]", "result": 0.955}, {"measurement": "Specificity", "setting": "[12]", "result": 0.847}, {"measurement": "Abundance", "setting": "[13]", "result": "3.18e-06"}, {"measurement": "MiST Score", "setting": "[13]", "result": 0.873}, {"measurement": "Reproducibility", "setting": "[13]", "result": 0.609}, {"measurement": "Specificity", "setting": "[13]", "result": 1}, {"measurement": "Abundance", "setting": "[14]", "result": "2.12e-06"}, {"measurement": "MiST Score", "setting": "[14]", "result": 0.864}, {"measurement": "Reproducibility", "setting": "[14]", "result": 0.988}, {"measurement": "Specificity", "setting": "[14]", "result": 0.816}, {"measurement": "Abundance", "setting": "[15]", "result": "7.46e-05"}, {"measurement": "MiST Score", "setting": "[15]", "result": 0.858}, {"measurement": "Reproducibility", "setting": "[15]", "result": 0.558}, {"measurement": "Specificity", "setting": "[15]", "result": 1}, {"measurement": "Abundance", "setting": "[16]", "result": "2.44e-06"}, {"measurement": "MiST Score", "setting": "[16]", "result": 0.866}, {"measurement": "Reproducibility", "setting": "[16]", "result": 0.991}, {"measurement": "Specificity", "setting": "[16]", "result": 0.817}]}
